Measured values as given in the DeepSol protein solubility set.

Experiment: soluble on expression in E. coli; label from the status in PepcDB or PDB records

Sequence	soluble on expression in E. coli
MSDSPKNAPRITDEADVVLIGAGIMSSTLGAMLRQLEPSWTQIVFERLDGPAQESSSPWNNAGTGHSALCELNYTPEVKGKVEIAKAVGINEKFQVSRQFWSHLVEEGVLSDPKEFINPVPHVSFGQGADQVAYIKARYEALKDHPLFQGMTYADDEATFTEKLPLMAKGRDFSDPVAISWIDEGTDINYGAQTKQYLDAAEVEGTEIRYGHEVKSIKADGAKWIVTVKNVHTGDTKTIKANFVFVGAGGYALDLLRSAGIPQVKGFAGFPVSGLWLRCTNEELIEQHAAKVYGKASVGAPPMSVPHLDTRVIEGEKGLLFGPYGGWTPKFLKEGSYLDLFKSIRPDNIPSYLGVAAQEFDLTKYLVTEVLKDQDKRMDALREYMPEAQNGDWETIVAGQRVQVIKPAGFPKFGSLEFGTTLINNSEGTIAGLLGASPGASIAPSAMIELLERCFGDRMIEWGDKLKDMIPSYGKKLASEPALFEQQWARTQKTLKLEEALEHHHHHH	not soluble
MSLEMTIAYIQENPYRLADEISGIGFKKADQIARAMGISLNSKYRIHSGIKYMLGTFHGEGHTYAPGDILIDRTRELLSVEESEVVEGIQELALKQKIQLERQDEEIIVYSMPYFYAETNTCNKLIELSQVELEPLEIDVDYEIESIEKEDGIALATNQKEAIRQSIENGIIVITGGPGTGKTTIINTLIKVFGKLKKKILLAAPTGRASKRMTEATGKEAKTIHRLLEMGYSDDDDGMLFQRNEENPLPADIIIIDEVSMVDIMLMNSLLKAISVGTRLIFVGDVDQLPSVGAGNVLRDIIDSKIIKVVRLNEIFRQAEESMIVVNAHKINKGEYPILNHKDKDFYFMSRSRSEDILNTIIGLVKERLPKHYKFDPIKDIQVLTPMKKGEVGSINLNKELQNYLNPPDKYKREKELREKVFRVGDKVMQIKNNYTLKWASLDPDTEERQGEGVFNGDMGYIQHINPEAQELTVFFDDNRSVVYTYTQLDELELAYAITIHKSQGSEFPVVVMPVTWGPPMLLTRNLLYTAITRARSLVVLVGTENYLNLMVSNNKIVERYSGLGIRLKKFYNEGHHHHHH	soluble
MENRGILFDKDGTCIRFDTLWQAGLQACFETLSMLAPHHSAEIKKILAIQEQRFLQKHLLDEVLYQELYQELAQFEELVEQGISSRWLEQFFYDYLRKNLKKIEPIGDLKQLFLELKRKNYKIGLATSDTLPATMLIMEYLGLTEMFDFIATGDRYLPKPDADMLQAFCQSCQLKATEVIMVGDSLVDVFMGTCHGKAGIGVLTGNCQSTDFEKFEVAYFRDIHEIPYQELWENTKKKKIYYF	not soluble
MEKDISRKIDLLNILIEEKRWFTLFELEKNLNCSSKTIRKDISIINDLLPKTIFIHSKKGKGVKLSLPQNQSISEAISNLLKKSLTFLAIQQLLEERSNTVTSLADKLYLPISSTNIVLKRVSKYIKKFGLSLEKKPLRIVGDEFQIILMFSERYLESYPDTEWPFTEYKEEMLIDYINYIEEKLEIVFYSNDKRRMAFIMTILFKRIKQGHKVKFSEWIIKETMESIYYKKIFEGKNVIKVNKNRSLNIEEQVLLVIMVKLSRYVSKDENNLKQEELVLYKEGESTTYTYVKNFISILEQELKIDLNNNEEFVYGMIEYCREAFHILKFIPILKAPEKDTCKYIKKHYEETFYLVKRAYNKWGAEMKLTDIPDEEIAKVTMRIVAIGKQHNINRKKVLLITGEGKSWEEYMKSRINKRYGDQLKFVGGHAKILNGNTDNIDNIDIDFIITTVPLNFSWKSIVYVSPILQERDFYEIGIFASK	not soluble
MEASKEFPGFPNDFHAFEVSPIPFDINSKELSLKNHSNRAILFKVKCTNNKRIRIEECSDILKPGNETTATIKKLVDTVDGDSLYVIYTLVGKEWHNERMSAWRCWERAKKQAVPTQCISVPIKRSSECEKKEKKYEKEKTKSED	soluble
MASPENVILVHEISKLKTKEELWNPYEWYQFMRDNHPVHYDDEQDVWNVFLYDDVNRVLSDYSLFSSRRERRQFAIPPLETRININSTDPPEHRNVRSIVSKAFTPRSLEQWKPRIQSIANELVKDIENCSEVDIVEQFAAPLPVTVISDLLGVPTTDRKKIKAWSDILFMPYSKEKFNDLDAEKGIALNEFKAYLLPIVQEKRYHLTDDIISDLIRAEYEGERLTDEEIVTFSLGLLAAGNETTTNLIINSFYCFLVDSPATYKEVREKPKLISKAVEEVLRYRFPVTLARRITEDTNIFGPLMKKDQMVVAWVSAANLDEKKFSQASKFNIHRIGNEKHLTFGKGPHFCLGAPLARLEAEIALTTFINAFEKIALSPSFNIEQCILENEQTLKFLPIRLKPQ	not soluble
MSLKLTGEESDTLRKIVLEECLPNQQQNQNPSPCAEVKPNAGYVVLKDLNGPLQYLLMPTYRINGTESPLLTDPSTPNFFWLAWQARDFMSKKYGQPVPDRAVSLAINSRTGHTQNHFHIHISCIRPDVREQLDKNLANISSRWLPLPGGLRGHEYLARRVTESELVQRSPFMMLAEEVPEAREHMGSYGLAMVRQSDNSFVLLATQRNLLTLNRASAEEIQDHECEILREGHHHHHH	soluble
MSLNEKEINYEEVMAKIDPENGIQVEIPRGANTDDIANILREHGVIKYPFWFKFVSKFNGYDGRYKSGKHIVNKDLKYKEIMEILCSNPVTTTVTIIEGKNTDQIADILSEKKVIDKEAFLEACNTEKFDYEFLKDIPENPQRENKLEGYLFPDTYFFDPKAGERAIIEKFLDNFDAKFKPEFYERAKELNMTVDEVIILASIIERETALPEERPIVSSVFHNRLKSSDPNLKKLESCATVQYVLYKTQGKMKEKLSDEDTKIDHPYNTYLYEGLPPGPICCPGLASIEAALYPDEESEYLYFVAKGDGSHEFSRTLAEHLEAVKKYQSNEGHHHHHH	soluble
MASSSSLSLSFPSSSLSRTWDYDVFPSFHGEDVRKAFLSQILKKEFGRKAINFFVDHEMERGEFIGPVLKQAIKGSKIALVLLSKNYASSWCCLDELVEIMKKESGQTVITIFYEVDPNEVKKQTGDFGKAFKETCQGKTEEKVQTWRKALEGVGLATIAGFHSSNWFVFFI	not soluble
MKLKNTLLASALLSAAAFSVHAATELTPEQAAALKPYDRIVITGRFNAIGDAVSAVSRRADKEGAASFYVVDTSEFGNSGNWRVVADVYKADAPKADAPKNRVINGIVELPKDQAVQLEPYDTVTVQGFYRSQPEVNDAITKAAKQKGAYAFYIVRQIDANQGGNQRITAFIYKQDAKKRIVQSPDAIPADSEAGRAALAQGGEAAKKVEIPGVATSASPSAEVGRFFETQSSKGGRYTVTLPDGTKVEELNKATAAMMVPFDSVKFTGNYGNMTEISYQVAKRAAKKGAKYYHITRQWQERGNNITISADLYKLEHHHHHH	soluble
GPGSMASQPGDALGKIEYWVQYIDCALKHPRPLPAGKHAHRQSLETIPEVAELYHCIYKLYNEEESSVWFREPVNALAQEIFTYYDVVKSPMSLRHILDNIVKGDTYSTALQVMEDVELIWKNCITFNGANSLLATEAGKCRSALDRIRRAYQDDQRITVEEAERLFRVISSMQEQQLIDNIAEYLRRDDPTSIDETGAVNFDMLKRKHFRNLERIVDNYSKSRTRS	soluble
MGSYIQMSGIGSRLRQERERLGLSQKVFGEIGGVEANAQGKYESGDRAPKADYLSRVAAKGVDVLYVLTGSRIPIQSGGLSQTEEKVLDCYRALFKEDQDAICRLTSTLAELSASQGERRKAQVRE	soluble
SQQALRILEVRSAYCKNDFEWDNMKRLAFKNVDDSNTRLMREYVLETSHVETDSDK	soluble
MRKIIHVDMDCFFAAVEMRDNPALRDIPIAIGGSRERRGVISTANYPARKFGVRSAMPTGMALKLCPHLTLLPGRFDAYKEASNHIREIFSRYTSRIEPLSLDEAYLDVTDSVHCHGSATLIAQEIRQTIFNELQLTASAGVAPVKFLAKIASDMNKPNGQFVITPAEVPAFLQTLPLAKIPGVGKVSAAKLEAMGLRTCGDVQKCDLVMLLKRFGKFGRILWERSQGIDERDVNSERLRKSVGVERTMAEDIHHWSECEAIIERLYPELERRLAKVKPDLLIARQGVKLKFDDFQQTTQEHVWPRLNKADLIATARKTWDERRGGRGVRLVGLHVTLLDPQMERQLVLGL	soluble
MGHHHHHHSHMKYGNPNYGGMKGILSNSWKRRYHSRRIQRDVIKKRALIGDDVGLTSYKHRHSGLVNVPEEPIEEEEEEEEEEEEEEEEDQDMDADDRVVVEYHEELPALKQPRERSASRRSSASSSDSDEMDYDLELKMISTPSPKKSMKMTMYADEVESQLKNIRNSMRADSVSSSNIKNRIGNKLPPEKFADVRHLLDEKRQHSRPRPPVSSTKSDIRQRLGKRPHSPEKAFSSNPVVRREPSSDVHSRLGVPRQDSKGLYADTREKKSGNLWTRLGSAPKTKEKNTKKVDHRAPGAEEDDSELQRAWGALIKEKEQSRQKKSRLDNLPSLQIEVSRESSSGSEAES	not soluble
MSLVRNSSRLLRSQLKRVQSVPVALYHENVVEHYENPRNVGSLDKKDVTVGTGLVGAPACGDVMKLQIKVDENGKIVDAKFKTFGCGSAIASSSLATEWVKGKSIDEAGKLKNTDIAKELRLPPVKLHCSMLAEDAIKAALADYKVKQQKKVAN	not soluble
GMAQNIYDQPDFFAGYSQLGRSIEGLDGAAEWPALRAMLPEVGGLRIVDLGCGFGWFCRWAHEHGASYVLGLDLSEKMLARARAAGPDTGITYERADLDKLHLPQDSFDLAYSSLALHYVEDVARLFRTVHQALSPGGHFVFSTEHPIYMAPARPGWAIDAEGRRTWPIDRYLVEGPRKTDWLAKGVVKHHRTVGTTLNALIRSGFAIEHVEEFCPTDAQITARPELAEELDRPMFLLVSARR	soluble
MGSDKIHHHHHHMKVLLTRPQGRNQAMEEQLSLRDVAYLVTPLLSVVETTEQLNPTHLNNTDNLLFISSNAVDFAAQKLQQQFPTHCRYFAVGQATADSLAQYNINAFTSPEHSQDSEGLLSLAQLQDVDKQSFIIVRGLGGRETLAEQLQLRGANVNYWQVYQRAIPNLDGKAITQQWKSFGIDTIVVTSGEILSNLVELVPKELFAWLRACHIIVPSNRVELQAKAMGLSHISNANGANTQAILASLAL	not soluble
MGSDKIHHHHHHMDKFLYVAMSGAKQNMSALAVRANNLANANTDGFKSDLTQARSMQAFGEGLPSRVFAMTEIATSDFKAGALKTTGRDLDIAVKGDGWIAVQAPDGSEAYTRSGGLKFDNTGLLLNSRNNPVMGNSGPIVLPLPIDKLQISPDGIISIRPQGATAEVIEEVARIKLVNPDNSQMMRGEDGLFRLTSGDVAAKDPSVQVESGAIEASNVNPVEEMVALISIQRQYEMQVKMMKTAEETDQASSSLMRIG	not soluble
MSLGDFSELARVNGEPVYVKEYKMKLLSNTTEVINYFSQSYAVETKENFRTDSYSGEAPVEMARKKALDDIVEVKVQQILAKEKGIIESTDYREFLKELENENRQRKDALKSNKVVYGPDNYGEIEYFNYSFDNMVSKLKEKLKENELSIPEEKLESMYNLLKDTRFKLPDDIKIQVISIGFTDEKGIINDDLKSKARVKIEEAKKRIDNGEPFEEVALDYNPKSGVLEYVFTKEKQMAKDISHPELLDEALKLKPGQVSEIIERSTDFVLILCKEKKSTGYLPYKDARKQLLDELIEKDYQEYIDKLVEQADVKINEKLYRRINVNEGHHHHHH	soluble
MNNFLKHNDWARDPAFNHFWRHYDFSNQWIKQHTDASRQVQMQMVQRDNLSTEQCFSDSEEPEVIERLSRCEIYSEIENEESDIEEMSEEMKAFFAKTQEHRQKFSIRGRIEQSTDHRNASAEFIAKREKAKKDYGESATKILAMESTLAMKFESEYSQNPQLWPNIPFRF	not soluble
